Source: US20170267766A1 (PIERRE FABRE MEDICAMENT, published 2017)

Assays:
[1] = molecular target: T1, human IGF-1R (native, on cells) (human, UniProt P08069 31-1367); experiment: FACS titration, MCF-7
T1 construct: also called hIGF-1R; native IGF-1R on MCF-7 cells
Procedure: (§1) The binding properties of a series of anti-IGF-1R antibodies were evaluated by FACS analyses on the human MCF-7 breast adenocarcinoma cell line (ATCC#HTB-22) using increasing antibody concentrations. For that purpose, cells (1×10⁶ cells/ml) were incubated with anti-IGF-1R antibodies for 20 min. at 4° C. in FACS buffer (PBS, 0.1% BSA, 0.01% NaN₃). They were then washed 3 times and incubated with the appropriate secondary antibody coupled with Alexa 488 for 20 additional minutes at 4° C. in the dark before being washed 3 times in FACS buffer. The binding of anti-IGF-1R antibodies was immediately performed on viable cells which were identified using propidium iodide (that stains dead cells). The maximum of signal intensity obtained with each antibody was designed as Bₘₐₓ and expressed in mean of fluorescence intensity (MFI). The EC₅₀ of binding expressed in molarity (M) was calculated using a nonlinear regression analysis (GraphPad Prims 4.0).

[2] = molecular target: T2, soluble recombinant Cynomolgus monkey IGF-1R with C-terminal 10-His tag (produced in house) (Cynomolgus monkey); experiment: SPR, common fit of the human and cynomolgus sensorgrams
T2 construct: extracellular domain; also called Cynomolgus IGF-1R ECD; Macaca IGF-1R
Procedure: (§2) The recognition experiments were run on a Biacore X100 device using a CM5 sensor chip activated by an anti-Tag His antibody (His capture kit GE Healthcare catalogue number 28-9950-56). More than 11000 RU of antibodies are chemically grafted on the carboxymethyldextan matrix using the amine kit chemistry. The experiments were carried out at 25° C. with a flow rate of 30 μl/min using the HBS-EP buffer (GE Healthcare) as the running and sample dilution buffer.
(§3) Solution of a second antibody is either injected in the same conditions on both flowcells or only on the second flowcell. […] At the end of the fifth injection the running buffer was passed in order to define the dissociation rate. The surface was then regenerated with an injection of a 10 mM Glycine, HCl pH 1.5 buffer during 30s.
(§4) The resulting sensorgrams were analysed using the Biaevaluation software with a 1:1 model. […] The quality of the fitting was assessed by a Chi2/Rmax ratio lower than 0.05 RU.

[3] = molecular target: T1, human IGF-1R (native, on cells); experiment: cell-based or functional assay
[4] = molecular target: T1, human IGF-1R (native, on cells); experiment: FACS titration, hIGF-1R transfected cells
Procedure: Briefly, increasing concentrations of chimeric mAbs were incubated with cells for 20 min at 4° C. in FACS buffer (PBS, 0.1% BSA, 0.01% NaN₃). Cells were then washed 3 times and incubated with the appropriate secondary antibody coupled with Alexa 488 before being incubated for 20 additional minutes at 4° C. in the dark and then washed 3 times in FACS buffer. The binding of anti-IGF-1R antibodies was immediately performed on viable cells which were identified using propidium iodide (that stains dead cells). The binding EC₅₀ expressed in molarity (M) was calculated using a nonlinear regression analysis (GraphPad Prims 4.0).

[5] = molecular target: T3, chimerical h/m IGF-1R construct C2 (human/mouse chimera, UniProt Q60751 31-937 (mouse entry)); experiment: SPR (Biacore X100), ratio of IGF-1R binding level to c208F2 capture level, supernatants diluted 10 times
T3 construct: soluble form, supernatant
T3 sequence (Q60751 other isoform, or with tags, fused parts or gaps mutant limits assumed): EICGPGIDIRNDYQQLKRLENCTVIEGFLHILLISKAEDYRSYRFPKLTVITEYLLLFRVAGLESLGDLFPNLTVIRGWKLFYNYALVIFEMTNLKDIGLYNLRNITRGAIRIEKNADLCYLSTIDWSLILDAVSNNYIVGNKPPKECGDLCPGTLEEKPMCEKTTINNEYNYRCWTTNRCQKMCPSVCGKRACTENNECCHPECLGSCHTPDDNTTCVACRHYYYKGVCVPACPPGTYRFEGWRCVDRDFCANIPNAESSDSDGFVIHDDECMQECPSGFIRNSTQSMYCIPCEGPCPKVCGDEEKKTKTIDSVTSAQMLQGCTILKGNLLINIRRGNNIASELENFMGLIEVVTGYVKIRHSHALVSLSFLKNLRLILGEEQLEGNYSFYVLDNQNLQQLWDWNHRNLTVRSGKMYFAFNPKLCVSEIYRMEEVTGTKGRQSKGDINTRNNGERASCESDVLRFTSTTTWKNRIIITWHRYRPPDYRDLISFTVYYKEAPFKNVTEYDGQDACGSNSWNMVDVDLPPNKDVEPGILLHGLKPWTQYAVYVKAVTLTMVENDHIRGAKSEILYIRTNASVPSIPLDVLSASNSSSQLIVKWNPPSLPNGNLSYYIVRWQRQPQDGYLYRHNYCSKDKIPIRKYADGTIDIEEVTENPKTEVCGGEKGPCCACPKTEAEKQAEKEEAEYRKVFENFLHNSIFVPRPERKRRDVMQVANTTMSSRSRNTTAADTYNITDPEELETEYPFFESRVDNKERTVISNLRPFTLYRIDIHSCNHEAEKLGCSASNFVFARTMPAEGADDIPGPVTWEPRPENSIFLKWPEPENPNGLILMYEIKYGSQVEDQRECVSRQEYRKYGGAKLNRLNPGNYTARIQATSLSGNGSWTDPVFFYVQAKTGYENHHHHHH

[6] = molecular target: T4, chimerical h/m IGF-1R construct C7 (human/mouse chimera, UniProt P08069 31-932, limits assumed); experiment: as above
T4 construct: 17 mouse specific residues

[7] = molecular target: T5, monkey IGF-1R (on COS-7 cells) (African green monkey); experiment: cell-based or functional assay
[8] = molecular target: T1, human IGF-1R (native, on cells); experiment: cell-based or functional assay; remark: listed apart in the source
[9] = molecular target: T1, human IGF-1R (native, on cells); experiment: FACS on MCF-7 cells, 4°C; inset table, axis log [M]
Procedure: as §1

[10] = molecular target: T5, monkey IGF-1R (on COS-7 cells); experiment: FACS on COS-7 cells, 4°C; inset table, axis log [M]
Procedure: In order to evaluate the binding of anti-IGF-1R antibodies on monkey IGF-1R, the binding of both murine and chimeric anti-hIGF-1R antibodies was evaluated by FACS analyses on COS-7 cell line using increasing antibody concentrations. Cells (1×10⁶ cells/ml) were incubated with anti-IGF-1R antibodies for 20 minutes at 4° C. in FACS buffer (PBS, 0.1% BSA, 0.01% NaN₃). Then, cells were washed 3 times and incubated with the appropriate secondary antibody coupled with Alexa 488 before being incubated for 20 additional minutes at 4° C. in the dark and finally washed 3 times in FACS buffer. The binding of anti-IGF-1R antibodies was immediately evaluated on viable cells identified using propidium iodide (that stains dead cells). The binding EC₅₀ expressed in molarity (M) was calculated using a nonlinear regression analysis (GraphPad Prims 4.0).

[11] = molecular target: T2, soluble recombinant Cynomolgus monkey …; experiment: SPR Biacore X100, single cycle kinetics, His-captured IGF-1R ~160 RU, 1:1 model
Procedure: as §2, §3, §4

Bmax [1]: 981 MFI
EC50 [1]: 0.67 nM
Kd [2]: 0.22 nM
% Internalization (MCF-7, 10 µg/ml, 4 h) [3]: 83%
ΔMFI [3]: 288 MFI
Bmax [4]: 2010 MFI
EC50 [4]: 0.32 nM
binding result [5]: no binding
binding result [6]: binds
% internalisation [7]: 67%
ΔMFI [7]: 52 MFI
hIGF-1R phosphorylation, % of that induced by IGF-1 (MCF-7, Ab 10 µg/ml) [8]: < 20%
EC50 [9]: 0.532 nM
EC50 [10]: 0.657 nM
Kd [11]: 0.17 nM
B1: c208F2 (antibody, human IgG1, kappa, V domains shown)
VH: QVQLQQSGPELVKPGASVKMSCKASGYTFTSYYIYWVKQRPGQGLEWLGWIWPGDGSTKYNEKFKDKTTLTADKSSNTAYMFLSSLTSEDSAVYFCASPMITPNYAMDYWGQGASVTVSS
VL: DIQMTQTTSSLSASLGDRVTISCRASQDISKYLNWYQQQPDGTIKLLIYYTSRLHSGVPSRFSGRGSGTDYSLTISNVEQEDIATYFCQQGSTLPYTFGGGTKLEIKR
notes: group G2; also called chimeric 208F2
